Laboratory results reported in paper doi:10.1101/2021.01.28.428596.

Biological target: RIR1-GFP (ProRIR1:RIR1-GFP in the rir1-1 mutant) (Arabidopsis thaliana) (UniProt C0LGG9)
Test: FRET or BRET

Sequence of UniProt C0LGG9 (C0LGG9 27-1035, change not shown): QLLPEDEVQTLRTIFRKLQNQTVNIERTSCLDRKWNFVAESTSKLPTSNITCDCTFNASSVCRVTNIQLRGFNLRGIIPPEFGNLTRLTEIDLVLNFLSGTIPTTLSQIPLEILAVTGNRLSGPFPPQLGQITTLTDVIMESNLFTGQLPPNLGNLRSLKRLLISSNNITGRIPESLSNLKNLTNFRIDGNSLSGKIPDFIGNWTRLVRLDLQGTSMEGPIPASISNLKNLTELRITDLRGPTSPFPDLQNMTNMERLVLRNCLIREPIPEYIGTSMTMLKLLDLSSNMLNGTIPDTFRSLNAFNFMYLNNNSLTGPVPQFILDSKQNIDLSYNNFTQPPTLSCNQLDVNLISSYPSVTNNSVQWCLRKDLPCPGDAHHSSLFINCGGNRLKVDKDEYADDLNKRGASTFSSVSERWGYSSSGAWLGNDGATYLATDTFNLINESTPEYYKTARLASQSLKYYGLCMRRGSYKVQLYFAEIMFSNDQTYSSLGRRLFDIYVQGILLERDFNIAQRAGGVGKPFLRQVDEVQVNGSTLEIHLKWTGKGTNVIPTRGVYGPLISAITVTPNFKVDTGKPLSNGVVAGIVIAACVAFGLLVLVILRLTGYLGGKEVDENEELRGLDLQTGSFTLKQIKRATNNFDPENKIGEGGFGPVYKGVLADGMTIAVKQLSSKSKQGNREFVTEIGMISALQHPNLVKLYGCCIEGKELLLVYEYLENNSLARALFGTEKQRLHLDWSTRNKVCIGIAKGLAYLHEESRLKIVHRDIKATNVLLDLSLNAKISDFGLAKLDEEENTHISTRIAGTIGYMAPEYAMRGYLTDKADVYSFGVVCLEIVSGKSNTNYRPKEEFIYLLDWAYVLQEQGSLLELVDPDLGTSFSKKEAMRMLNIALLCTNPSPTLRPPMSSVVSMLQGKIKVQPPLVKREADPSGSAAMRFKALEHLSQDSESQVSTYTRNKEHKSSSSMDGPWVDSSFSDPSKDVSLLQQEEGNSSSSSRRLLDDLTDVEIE

GFP donor fluorescence lifetime with acceptor (τDA): 2.21 ns
Substance: mCherry-REM1.2 (ProREM1.2-mCherry-REM1.2 in rir1-1/RIR1-GFP#3) (from UniProt P0CAP4 1-446) (natural protein)
